Experimental data: patent US10513545B2, “Fusion polypeptide in which anti-inflammatory polypeptide and ferritin monomer fragment are bound and pharmaceutical composition for preventing and treating inflammatory diseases, containing same as active ingredient” (KYUNGPOOK NATIONAL UNIVERSITY INDUSTRY-ACADEMIC COOPERATION …, priority 2015, dated 2019)
Where two headings read alike, the source gives them in different places.

Assays:
PAR-1 = PAR-1 cleavage assay in transfected HUVECs (ALP activity); assay type: cell-based; settings: FIG. 13
Protocol: HUVECs at 90% confluence in 24-well plates were transiently transfected with pRc/RSV containing ALP-PAR-1-TF cDNA in antibiotic-free Opti-MEM medium using Lipofectamine (Invitrogen) according to the manufacturer's instruction. On the following day, cells were washed and incubated in serum-free medium for 5 h. Cells were then incubated for an additional hour with thrombin, TRAP, TFG, or TFMG. Conditioned medium was collected and centrifuged to remove cellular debris. Supernatant was collected, and ALP (alkaline phosphatase) activity was measured using EnzoLyte™ p-nitrophenyl phosphate alkaline phosphatase assay kit (AnaSpec, San Jose, Calif.) according to the manufacturer's instructions.

soluble EPCR (sEPCR) [1] = molecular target: T1, soluble EPCR (sEPCR) (Homo sapiens, UniProt Q9UNN8); experiment: solid-phase ELISA for binding affinity to soluble EPCR; settings: FIG. 9, read-out: Kd(app) for the interaction with sEPCR
T1 construct: 96-well flat microtiter plates were coated with soluble EPCR
T1 sequence (Q9UNN8 18-210 limits assumed): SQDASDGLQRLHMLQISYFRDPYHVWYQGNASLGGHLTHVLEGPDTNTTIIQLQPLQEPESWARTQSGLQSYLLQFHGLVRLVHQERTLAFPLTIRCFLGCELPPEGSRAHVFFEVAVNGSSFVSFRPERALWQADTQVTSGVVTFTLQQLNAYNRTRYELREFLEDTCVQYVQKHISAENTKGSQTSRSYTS
Protocol: 9. Enzyme-Linked Immunosorbent Assays (ELISA) for Evaluating EPCR (Endothelial Protein C Receptor) Binding Affinity
To evaluate the interaction of the wild-type PC, PC-Gla peptides, TFG, and TFMG with EPCR, 96-well flat microtiter plates were coated with soluble EPCR in 20 mM carbonate-bicarbonate buffer (pH 9.6) containing 0.02% sodium azide, overnight at 4° C. After the plates were washed three times in TBS buffer (0.1 M NaCl, 0.02 M Tris-HCl, pH 7.4) containing 0.05% Tween 20, the plates were incubated with wild-type PC, PC-Gla peptides, TFG, and TFMG (7-1000 nM) diluted in the buffer for 1 h. After the plates were rinsed again, they were incubated with a goat anti-protein C polyclonal antibody (1:1000) for 1 h. Then, the plates were washed and incubated with rabbit anti-goat IgG (KPL, MD, 1:1000) for 1 h. After washing, the plates were incubated with 2,2′-azino-di(3-ethylbenzthiazoline-6-sulfonate) (ABTS; KPL, Gaithersburg, Md.). Colorimetric analysis was performed by measuring absorbance values at 405 nm.

soluble EPCR (sEPCR) [2] = molecular target: T1, soluble EPCR (sEPCR); settings: in an aqueous solution; read-out: previously reported binding affinity for PC to sEPCR; cited from earlier work

Kd (soluble EPCR (sEPCR) [1]) [nM] | Substance | PAR-1 cleavage activity (ability to activate PAR-1) (PAR-1) | Kd (soluble EPCR (sEPCR) [2]) [nM]
 | TRAP peptides: thrombin receptor agonist peptide TFLLRN (SEQ ID NO: 3), activates PAR-1 (Thrombin receptor agonist peptide (TRAP)) [reference compound] | strong similarities | 
~31.3 | wild type PC: wild-type Protein C, comparator in the EPCR binding ELISA [reference compound] |  | 29
